# Measured values: article PMC9287160
# Substitutions are numbered along the chain they refer to. Names may count otherwise.
# B1: nanobody hCD11bNb1 (His-tagged) N101A (protein)
# chain: QVQLVETGGGLVQAGGSLRLSCAASGNINSFNAMGWFRQAPGKQRELVAAITFGGRTNYADSVKGRFTISRDNTKGSVYLQMNSLKPEDTAVYYCAASEANLLTGVWHYWGRGTQVTVSS
# B2: nanobody hCD11bNb1 (His-tagged) F54A (protein)
# chain: B1 chain with F53A, A100N
# B3: nanobody hCD11bNb1 (His-tagged) N30A (protein)
# chain: B1 chain with N29A, A100N
# B4: nanobody hCD11bNb1 (His-tagged) F32A (protein)
# chain: B1 chain with F31A, A100N
# B5: nanobody hCD11bNb1 (His-tagged) I29A (protein)
# chain: B1 chain with I28A, A100N
# Biological target: human integrin αMβ2 headpiece fragment, P11215;P05107
# Assay: BLI competition assay
# Details: chain shown with the change; 20 nM αMβ2 HP preincubated with 10-fold molar excess of nanobody variant; immobilized biotinylated avi-tagged WT hCD11bNb1; signal is HP binding to the sensor …; parent: est. 0.31; read off a plot
row,response [nm],Binder
1,1.2,B1
2,1.2,B2
3,0.98,B3
4,1.1,B4
5,0.45,B5
